This note sets out measurements from patent publication US12060424 (AMUNIX PHARMACEUTICALS, dated 2024).

The test addresses T1, human EpCAM expressed on cells (CHO cells stably transfected with human EpCAM); EpCAM-positive human tumor … (human, UniProt P16422 24-314).
T1 construct: whole, on cells; also called EpCAM-CHO; hEp-CHO 4-12B
T1 sequence (looked up): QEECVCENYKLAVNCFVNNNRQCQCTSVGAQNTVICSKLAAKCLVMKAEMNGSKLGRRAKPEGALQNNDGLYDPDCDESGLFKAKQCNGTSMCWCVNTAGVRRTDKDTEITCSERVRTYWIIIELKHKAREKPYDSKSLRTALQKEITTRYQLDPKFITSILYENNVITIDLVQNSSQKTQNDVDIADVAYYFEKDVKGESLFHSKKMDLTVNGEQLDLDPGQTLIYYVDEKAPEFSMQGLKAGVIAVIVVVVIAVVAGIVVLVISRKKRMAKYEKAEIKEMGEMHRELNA
As to the kind of experiment: competition flow cytometry on hEp-CHO 4-12B cells. In general terms: A flow cytometer gives signals particle by particle.

B1: AC1952 anti-human EpCAM×anti-human CD3 ProTIA with two XTEN, RSR-2295, uncleaved (bispecific antibody)
chain: SPAGSPTSTEEGTSESATPESGPGTSTEPSEGSAPGTSESATPESGPGSEPATSGSETPGTSESATPESGPGSEPATSGSETPGTSESATPESGPGTSTEPSEGSAPGSPAGSPTSTEEGTSESATPESGPGSEPATSGSETPGTSESATPESGPGSPAGSPTSTEEGSPAGSPTSTEEGTSTEPSEGSAPGTSESATPESGPGTSESATPESGPGTSESATPESGPGSEPATSGSETPGSEPATSGSETPGSPAGSPTSTEEGTSTEPSEGSAPGTSTEPSEGSAPGGSAPEAGRSANHTPAGLTGPATSGSETPGTDIQMTQSPSSLSASVGDRVTITCRSTKSLLHSNGITYLYWYQQKPGKAPKLLIYQMSNLASGVPSRFSSSGSGTDFTLTISSLQPEDFATYYCAQNLEIPRTFGQGTKVEIKGATPPETGAETESPGETTGGSAESEPPGEGQVQLVQSGPGLVQPGGSVRISCAASGYTFTNYGMNWVKQAPGKGLEWMGWINTYTGESTYADSFKGRFTFSLDTSASAAYLQINSLRAEDTAVYYCARFAIKGDYWGQGTLLTVSSGGGGSELVVTQEPSLTVSPGGTVTLTCRSSTGAVTTSNYANWVQQKPGQAPRGLIGGTNKRAPGTPARFSGSLLGGKAALTLSGVQPEDEAEYYCALWYSNLWVFGGGTKLTVLGATPPETGAETESPGETTGGSAESEPPGEGEVQLLESGGGLVQPGGSLKLSCAASGFTFNTYAMNWVRQAPGKGLEWVARIRSKYNNYATYYADSVKDRFTISRDDSKNTAYLQMNNLKTEDTAVYYCVRHGNFGNSYVSWFAYWGQGTLVTVSSGTAEAASASGEAGRSANHTPAGLTGPPGSPAGSPTSTEEGTSESATPESGPGTSTEPSEGSAPGSPAGSPTSTEEGTSTEPSEGSAPGTSTEPSEGSAPGTSESATPESGPGSEPATSGSETPGSEPATSGSETPGSPAGSPTSTEEGTSESATPESGPGTSTEPSEGSAPGTSTEPSEGSAPGSPAGSPTSTEEGTSTEPSEGSAPGTSTEPSEGSAPGTSESATPESGPGTSTEPSEGSAPGTSESATPESGPGSEPATSGSETPGTSTEPSEGSAPGTSTEPSEGSAPGTSESATPESGPGTSESATPESGPGSPAGSPTSTEEGTSESATPESGPGSEPATSGSETPGTSESATPESGPGTSTEPSEGSAPGTSTEPSEGSAPGTSTEPSEGSAPGTSTEPSEGSAPGTSTEPSEGSAPGTSTEPSEGSAPGSPAGSPTSTEEGTSTEPSEGSAPGTSESATPESGPGSEPATSGSETPGTSESATPESGPGSEPATSGSETPGTSESATPESGPGTSTEPSEGSAPGTSESATPESGPGSPAGSPTSTEEGSPAGSPTSTEEGSPAGSPTSTEEGTSESATPESGPGTSTEPSEGSAPGTSESATPESGPGSEPATSGSETPGTSESATPESGPGSEPATSGSETPGTSESATPESGPGTSTEPSEGSAPGSPAGSPTSTEEGTSESATPESGPGSEPATSGSETPGTSESATPESGPGSPAGSPTSTEEGSPAGSPTSTEEGTSTEPSEGSAPGTSESATPESGPGTSESATPESGPGTSESATPESGPGSEPATSGSETPGSEPATSGSETPGSPAGSPTSTEEGTSTEPSEGSAPGTSTEPSEGSAPGSEPATSGSETPGTSESATPESGPGTSTEPSEGSAPGHHHHHH
notes: XTEN-RSR2295-anti-EpCAM scFv-anti-CD3 (hCD3.9) scFv-RSR2295-XTEN-His6
For the molecule B1, the “fold weaker binding affinity than cleaved AC1968” value was ~100 fold.
